This is an account of results in the domain aggregation screens of Martell et al. (2025).

A short description of this data set: soluble fraction after stress (log2 fold change); higher = more stays soluble; pooled small domains, quantitative proteomics. The following applies: stress: 50 degC. An outline of the steps: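 Pooled custom libraries of small protein domains were measured in a high-throughput format, with quantitative proteomics as the read-out. Each library was stressed at 50°C. Aggregation propensity is given as the base-two logarithm of the fold change in how much of each protein stays soluble after the stress. Higher values mean a larger share of the protein remains in solution.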

Take “HMNDNFTPDDLNRLARIKDLPQAKKYALELISNKSAKPMKPEKVRWFANQLQKKKSVMDITKMMYDLLLA”: the “soluble fraction (log2)” value is -0.0441. To “HMGHLTWTVTGIGHERRARTVAEQMSSVFGVLEARASSAGTVYLEFEREKIDEGGLEASLKRMGVTRVV” belongs -1.71.

For “HMDHAVINSEEVTIKDLSEKIGVSAAEIIKALFTEGIIKTINDKIEYEYAQYVAGMFGVELTLKL”, the “soluble fraction (log2)” value was 0.277. Next, “HMTVGENTYELIKKDIIFGVLPPLKKLKLQELKKIYNASVSTLREILSRLTGDGFVFSEEQKGFYVSPV”: 0.00444. To “HMDYRSMSGLQKAALLIMSVGEETAAKLFQLMHDDEIREISQTMANLGTVNATVIERLFVEFADAISS” belongs -0.966; to “HMHPARITATVRVGEGDLVDIEREAELGGPIHSKGVMILSSFLGARYARTVPLSLSASLVFEQSY”, 0.0114; to “HMRSAKEYKAIREEIYRFIGAYITKHVYAPSNKEIAEAVGISGTTVHRHLIDMIDEGILETD”, -2.56. To “HMPDAGQRRYLELVTALAGARSLTIDDLERRAIRFAEWGNGYSGRTARQFIDTLLQDRGVAEEL” belongs -0.405; to “HMIDRPLTLVEDYERFAGELAKITLRFMLDGRKRFNGRLAGFDEDGKIVLETSFGRFAFSFDEIDSARI”, -2.68; to “HMQNDILIQADEIVGDYFDMDKEALKMNKQAVIADIEKRQATAQGDEASALHYAKQKVENEFEDDGSQKD”, 0.185.

As to “HMEGEVVESPLVGVAYLASGPDKPAFVQVGDSVSKGQTLLIIEAMKVMNEVPAPRDGIVTEILV”, the “soluble fraction (log2)” value is 0.0266. “HMATVIDVATTLGRPITDPDEQRQVLNWIGKTERIISARLGDLAALDRQILADVISEVVARRARN”: the “soluble fraction (log2)” value was -0.4. Next, “HMQLHDTMKRVYEALDISEQKLAESLGLKLSTIINWQKNGISKIGINKLNQTFGLDMQWILTGQGEPFI”: 0.116. “HMKSNIIPLSLKKPQRLDIFLTNYFVDLSRTQIKKMITDGNIKVNDLIAKPSLKLIGDEIIFYTLPK”: the “soluble fraction (log2)” value was -1.24.

For “HMQDKIWVVDETQLYPKLIEAMSEGKAVIHDGVAYWAEGSGKTGVIQHLPFKETTVQNVEEAIKLAQ”, the “soluble fraction (log2)” value came out at 0.169.

Turning to “HMAQTTKWREIHKVKRKETIFGIARDNGLTVDELIEANPEMTKPGYELKKGDFIYIPFPSKNIDTNAGTQT”, the “soluble fraction (log2)” value was -0.157.

Regarding “HMPLDISDDSKAVLKLLKNDSNELNTVKSASGLSNKKWDKTIKELTKNKIVSVSKTEDGLYIHLI”, the “soluble fraction (log2)” value was 0.202. Regarding “HMKILVTDDNIRIDKYLTTQTEYSRSTIQKMIESNNILVNNKPTKSNYILRNNDEITIDENFNEE”, the “soluble fraction (log2)” value was -0.11. Consider “HMRDDAIQQGREIVERELHRLDLAYTTLTDVLAKLEYEKLDDLYAAVGFGIRSPHSVAAAALQVERDKA”, for which the “soluble fraction (log2)” value was -0.569.

As to “HMVSLSENQKIVLESLNTAMSARELMEILNLSDISHFRRNILNPLLLEGLIVRTKPDKPKSSKQKYIKANF”, the “soluble fraction (log2)” value was -1.15.

“HMATAADLLQSATGVPRSDALLLLAKLLGVAKERLIAHPETVVSEKTQATFSDWIERVRGGFPTTYLLG”: the “soluble fraction (log2)” value is -0.0115. For the sequence “HMNSEEINDVRKAVDELPTHLREILLLNYFQQMSYVQISDSLEIPLGTVKSRLHAAVAAFRNAWQSSQEE”, the “soluble fraction (log2)” value is -0.617. Next, “HMQSHIVPDVKSQHIAQAKALLESKQMKAVVIDSNFVKGLPAGIVLDQTPIGGARVKENRTIYLTINTL”: -0.557; “HMGEYGVLWYLLTKKEAVSAGELKEKLHVVPGRMTDILTALEKKGLIIRQKNKTDKRVVDVVLTKEGEKEA”: -0.471. To “HMKQVTVGGTINAGGARIYADSYGNGGGRQTFGSDPIYTVLQERNGYILTRWHKLSSGYTGWFKKSDVSA” belongs -0.298; to “HMPIEQVEVPNLTNMTREEAESTLTSLNLKAQVHEEANEADEGKVFKQGTNTGEMVDEGSTIEIWVS”, -0.478; to “HMGDPYAILGLLPGASMEDVRHAWRRQAAENHPDRMLQRGAPPEFVEIAREKTAAINAAYARIREELSI”, -0.303. On to “HMQILLASHAELAKGILSAVELIAGTQQNLKAYSAYTEAVDVHFKDQMLQDLNKMDPEDEVIL”, for which the “soluble fraction (log2)” value was found to be 0.0294. Take “HMNLGAHVYWRNHRAYGDFREYEDVGGGREALALPGSTWGTKDPRVAQALFAARLTEFQEARVGR”: the “soluble fraction (log2)” value was -1.05. Turning to “HMNADAIIGRMGKVTEPITPDGYGRVEIDGDSWKATAVGGVAIAEGTRVSVVSLDSIIITVKTV”, the “soluble fraction (log2)” value is -0.293. To “HMSMVGSVNKQGRPFALLRVDNLLYQVKVGDYLGQNYGRITQIDETQIALREIVQDAAGEWIERPGVLQL” belongs 0.00588; to “HMHVSLSGKIHSELRKLILNGELKAGERLPSEPDLAHELGVSRNSLREAIGLLQREGLLLKKHGIGTFVTD”, -0.829; to “HMGMLATFVTSAKVPDDVVYAITKEVFENLDEFKKLHPALEGLTRETMLEGLTAPIHPGALKYYKEAGLM”, -0.522. Next, “HMKSQSIFNVKKGDTLSHIAVHVLKKNKQKVTPEAINKMVSNIAFRNKIKNPDLIFPGQKLVLEY”: 0.117. Next, “HMHYKLIIFENHTKSTSLDITPEQARQILGVTDYTPEQYEILAEITNRPASYFMDDLVDYYVD”: -2.39; “HMDDPEISQEQRQQLFRTAKEHFGASGNDVLKEILADHGRDSTVKMPVSVFAEIMGDLLKRALD”: 0.432.

With “HMQAKQVAIPDVANYSVTDAIKKLQDAGFIVSDEQREEANETVSEGKVSRTSPAAGSIRKEGTEIILYKSL”, the “soluble fraction (log2)” value worked out at 0.198. Next, “HMEIESAHAQVLGVREIAASGATQHWIAFRFSDGHQRELLATPSQADVIFRGQQGVVHFAGDRLTGWIPE”: -0.191; “HMGDAVYSKVKDLVNTYNALAKQTGKSDLVSISQSRTWMVNDTKAHEVQWNKIGITIEDDQTLTI”: 0.179; “HMAAENAVGARVKALREAMDLSLRDLSERSGVSPTMLSQVERGSTSPTLAVAEKIAAGLDLSLSQLLRL”: -0.0179. Turning to “HMPNPALESARPAFEAFLSRFSDGEAMRGPAWGLWSLLHRKGNAPTASHAAGRDGMGVLAFLRHWQWG”, the “soluble fraction (log2)” value is -0.479. Turning to “HMKDITMPNVYGLTLEMAEQTLKQSELSIFKAMKINSDTVEEGKVIYTDPKANSIVSGDQEITIYVSDGP”, the “soluble fraction (log2)” value worked out at 0.0645. With “HMKGTVKFFNESKGFGFITEEGTNKEHFVHVSGLVDEIRENDEVEFDLQDGRKGLNAVNVRV”, the “soluble fraction (log2)” value stood at 0.231. With “HMTKNIIVTTSVKTSDELVEVAKNHALNLELDFNYRNKKTIKELLSSFDGLVVIYKNKISYFEDNSELF”, the “soluble fraction (log2)” value turned out to be 0.0798. As for “HMEKIELKTVIPENLKKKRLDFALSELFPEHSRSRIQSWIKEGSVMVNSKNYRQRDLVDAGDVVEINTEQK”, the “soluble fraction (log2)” value was found to be 0.236. For “HMGVNNDIIKHRKLEFMIEMLPDTFTRKEANEIGEGLGISLATLTRYLSSDAFERTGHGRYRKKD”, the “soluble fraction (log2)” value was -1.08. As to “HMRLDSELVSARLHRFMGTNRKPDGEIVEKIAAILEGHPIETLDAFLQSLNGRKIKSYGFFPTVLRREIAN”, the “soluble fraction (log2)” value was -0.319. Next, “HMQAQQYYMLLMNKATSALKIEALGANSNKAHQSFGTKTAGGSAVYWGILFNSNGKIYKIVG”: -2.96. Next, “HMRQLISIYNNTIGADEIDQMRNILSNSGYKEGVDFAVQTADKKSVILVRRDLAGMIQEQLSGEGLPS”: 0.0201; “HMTMTIEITVNGKTKTLVAELSLADLLRDLGMTKGRIAVELNGHIVPRSQFSSKTISNLDSIEIVQ”: -3.23.

As for “HMGFAEFWLAYPKKVGKGEAERKWKTLKPDAGAVLSAVKRQSASEQWRKDGGRYIPNPATWLHQRRWE”, the “soluble fraction (log2)” value is -0.0238. For the sequence “HMRELPKRPEIRYAAGDRVFHKAFGNGLVKQVAQTAGGARVTVDFGEGKGVKTFAGDAPMIKI”, the “soluble fraction (log2)” value worked out at 0.342. Next, “HMDSTDSIIHYVRAHRSLEVKNLSFAEARFKKVVELEPNFARGWLGLGEVSILKNNFENASIYLDKALE”: -0.463. With “HMGSNRPLALGDVVRIEGSKTLGTILELNAKDAVVALGALKTTLPLSRIHHASSQESQRLKRQATQAPLR”, the “soluble fraction (log2)” value turned out to be 0.123.

As to “HMRSPIWKSITATLTAEIAGGQYRAGDKLPTEAELSQRFGVNRHTLRRALAEMAGAGLVVARRGAGVFVQG”, the “soluble fraction (log2)” value is -1.94. For the sequence “HMSRMLTVKQREVFDLAMREGYWETPRRITLTMLASLLSVSKSTLSVQLHKIEGTVLSSFSDEVRRRS”, the “soluble fraction (log2)” value was -1.49. With “HMNSFGWESFVGEKGVTDTDLRPSGWIVIKDKRLFALTEGTFIEKGVSVEILSVEGNRIVVREIS”, the “soluble fraction (log2)” value is -0.249. Regarding “HMATTIEAPMPGKILDVKVNPGQAVSYGQVVLTMEAMKMETEIVAPADGTVASVLVKSGDMVETGAALVSL”, the “soluble fraction (log2)” value was 0.0867. To “HMLEAMDSDEAAKVIEQIVNERADFVRSKGMGAIGPLMGPVMGALRGKVDGKQANELLTAAIKKLL” belongs 0.273; to “HMIADPAKPDWTTILAPVTTGTTVTHKTFGQGTVTKLDKTKKYLTVSFAAGQKNFVFPNAFIDGFLK”, 0.203; to “HMSFYSVVISQDGSMLVAENRNEIYSNEELLELASEVNEKTGTIGTIGSLMYYKADKGGYTLITFLDNS”, -3.02.

For “HMTEVPSLSSLKIGDLIFYRNNKGAIAHSAIITSFYNGRPFISQHTFNALNITYVKDWASKMHFIKIW”, the “soluble fraction (log2)” value is -0.0353. Next, “HMAVDPSVLTRRERQALAWIARGLSNKEVARGLNLAESTVKVHVQSILRKLNLTSRVQAAVYAIEHGIDK”: -2.79.

On to “HMQSAKLSYSDFMQKVNAGDVVSVKIQGPKISGVTTGGGKFMTYAPEDPTLVSTLMQKKVEVMAEP”, for which the “soluble fraction (log2)” value was determined as 0.178. Next, “HMTRQNTAVQQSDMAHHKASELTEGMSIVHSHFGRGTIISIETADDPRVTVDFSSEGRKTMLLRFAKFAIE”: -0.118; “HMLSLKAQVYEIIRQKILQQEYALGEKINIDTVADELKISNSPIREALMMLSQDGLIEMVPNNGARVI”: -0.772. Next, “HMKSQVVAYSDFVKAVNQKQINEVQIQGDKIRAINKAGEEITVTWLQNDQKLMDDLLDNNVKTIFLE”: 0.29; “HMIAPQISSGKVNTKELNVRSGPATTFGIVKKLPLNAMVGIFEEKNGWFRIATGQWVSKTYVDL”: -1.5.
